Experiment [1] addresses T1, Myo5c–HMM (Homo sapiens, UniProt Q9NQX4).
T1 construct: heavy meromyosin fragment, residues 1-1108 (motor domain, six IQ motifs, coiled coil), C-terminal Flag tag, co-produced with light chains in baculovirus/Sf9, anti-FLAG purification; dimer; six CaM per heavy chain when co-produced with CaM only; with Calmodulin-1
In words: NADH-coupled steady-state actin-activated ATPase assay, dose-response fit. Type of experiment: biochemical.

The target of experiment [2] is F–actin (bare actin filaments) (not stated (human β–actin or chicken α–skeletal actin prepared)) (UniProt P60709).
In experiment [3] the target is cofilaments of actin and Tpm3.1 (not stated (human β–actin or chicken α–skeletal actin prepared) | human) (UniProt P60709).
Experiment [4] deals with cofilaments of actin and Tpm1.6 (not stated (human β–actin or chicken α–skeletal actin prepared) | human) (UniProt P60709).
The target of experiment [5] is cofilaments of actin and Tpm1.8 (not stated (human β–actin or chicken α–skeletal actin prepared) | human) (UniProt P60709).
Experiment [6] has as its target Myo5c–HMM heavy chain (human Myo5c, amino acids 1–1108, C-terminal Flag) (human) (UniProt Q9NQX4). The experiment is described as follows: co-purification on anti-FLAG affinity resin, Coomassie gel and immunoblot; Myo5c–HMM-Flag co-produced with CaM alone in Sf9; lysate on anti-FLAG-M2 resin 2 h at 4°C, washed with 500 mM NaCl and 2 mM ATP, then 100 mM NaCl, eluted with FLAG peptide; blot with anti-Flag and anti-CaM; ratio from the gel. (In western blotting, separated proteins are transferred to a membrane and probed.)

For experiment [7] the target is unchanged. The experiment is described as follows: co-purification on anti-FLAG affinity resin, Coomassie gel and immunoblot; Myo5c–HMM-Flag co-produced with CaM, RLC (Myl12b) and ELC (Myl6) in Sf9; lysate on anti-FLAG-M2 resin 2 h at 4°C, washed with 500 mM NaCl and 2 mM ATP, then 100 mM NaCl, eluted with FLAG peptide; blot with anti-Myl12b, anti-CaM, anti-Myl6; ratios from the Coomassie-stained gel.

The target of experiment [8] is T2, Myo5c–HMM heavy chain (human Myo5c, amino acids 1–1108, C-terminal Flag) (human, UniProt Q9NQX4 1-1108).
T2 construct: human myosin 5c (Myo5c) heavy chain, amino acids 1-1108 (motor domain, neck with IQ motifs, part of the coiled coil), Uniprot-ID Q9NQX4; Cloned in pFastBac Dual under the polyhedrin promotor; also called heavy meromyosin fragment of the Myo5c heavy chain; source: baculovirus/Sf9, co-produced with light chains; not shown: Flag, C-terminal, kept
T2 sequence (Q9NQX4 1-1108): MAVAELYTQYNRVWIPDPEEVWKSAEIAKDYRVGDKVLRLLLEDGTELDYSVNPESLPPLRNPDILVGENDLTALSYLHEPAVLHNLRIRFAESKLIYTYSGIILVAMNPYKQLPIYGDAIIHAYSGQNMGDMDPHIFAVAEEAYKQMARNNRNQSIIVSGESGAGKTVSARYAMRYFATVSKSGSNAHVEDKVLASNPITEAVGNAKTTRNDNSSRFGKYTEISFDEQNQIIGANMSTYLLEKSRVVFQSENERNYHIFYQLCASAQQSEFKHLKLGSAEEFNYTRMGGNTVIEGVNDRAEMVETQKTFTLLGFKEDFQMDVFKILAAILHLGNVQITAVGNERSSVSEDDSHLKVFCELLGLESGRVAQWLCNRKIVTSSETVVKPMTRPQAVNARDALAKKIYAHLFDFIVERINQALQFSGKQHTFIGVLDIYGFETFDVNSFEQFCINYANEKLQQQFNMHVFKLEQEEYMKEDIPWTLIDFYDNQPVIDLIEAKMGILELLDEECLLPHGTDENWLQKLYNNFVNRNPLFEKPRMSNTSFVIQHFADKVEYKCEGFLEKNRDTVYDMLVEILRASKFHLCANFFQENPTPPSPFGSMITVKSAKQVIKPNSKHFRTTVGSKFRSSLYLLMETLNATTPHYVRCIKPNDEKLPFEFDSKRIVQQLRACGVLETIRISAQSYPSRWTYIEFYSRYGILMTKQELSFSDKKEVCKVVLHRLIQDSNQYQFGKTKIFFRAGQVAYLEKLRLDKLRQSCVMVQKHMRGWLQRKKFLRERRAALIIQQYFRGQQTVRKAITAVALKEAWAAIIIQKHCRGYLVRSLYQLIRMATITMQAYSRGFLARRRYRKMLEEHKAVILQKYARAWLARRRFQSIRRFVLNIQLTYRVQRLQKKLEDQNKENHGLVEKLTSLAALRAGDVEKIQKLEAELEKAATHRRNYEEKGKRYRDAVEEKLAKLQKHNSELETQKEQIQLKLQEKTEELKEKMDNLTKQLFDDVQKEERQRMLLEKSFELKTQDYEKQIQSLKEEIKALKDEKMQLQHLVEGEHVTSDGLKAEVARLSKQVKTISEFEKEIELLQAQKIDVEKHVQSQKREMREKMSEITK
The experiment is described as above. Particulars: partners not purified.

The term IC50 denotes the concentration needed to halve the response being measured.

Chain of Myo5c–HMM heavy chain (human Myo5c, amino acids 1–1108, C-terminal Flag) (human) (Q9NQX4 1-1108): as above
T1 sequence (Q9NQX4 1-1108): as above

In the case of `Oc1c(Br)cc(Br)cc1-c1[nH]c(Br)c(Br)c1Br` [PBP, 2,3,4–tribromo–5–(3,5–dibromo–2–hydroxyphenyl)–1H–pyrrole], in experiment [1], the concentration for half-maximal inhibition (IC50) is 280 ± 60 nM.

“Myo5c–HMM (CaM): Myo5c–HMM heavy chain co-produced and co-purified with calmodulin (from UniProt Q9NQX4 1-1108; P0DP23 1-149) (complex)” registered a K (app actin) of the steady-state actin-activated ATPase (NADH-coupled assay, 30°C, 0.15 µM myosin), bare actin in experiment [2] of 5.7 µM. In experiment [3], this molecule returned a K (app actin) of the steady-state actin-activated ATPase (NADH-coupled assay, 30°C, 0.15 µM myosin), actin–Tpm3.1 cofilaments of 5.54 µM. The same molecule came in with a K (app actin) of the steady-state actin-activated ATPase (NADH-coupled assay, 30°C, 0.15 µM myosin), actin–Tpm1.6 cofilaments in experiment [4] of 2.31 µM. In experiment [5], this molecule came in with a K (app actin) of the steady-state actin-activated ATPase (NADH-coupled assay, 30°C, 0.15 µM myosin), actin–Tpm1.8 cofilaments of 3.24 µM.

For the molecule “calmodulin (CaM) (from UniProt P0DP23 1-149) (natural protein)”, in experiment [6], the stoichiometry N (CaM per heavy chain) was found to be 6. Moreover, the stoichiometry N (light chain:heavy chain) in experiment [7] amounted to 2.

B1: essential light chain Myl6 (natural protein, human (from the printed UniProt entry), UniProt P60660 1-151, looked up)
chain: MCDFTEDQTAEFKEAFQLFDRTGDGKILYSQCGDVMRALGQNPTNAEVLKVLGNPKSDEMNVKVLDFEHFLPMLQTVAKNKDQGTYEDYVEGLRVFDKEGNGTVMGAEIRHVLVTLGEKMTEEEVEMLVAGHEDSNGCINYEAFVRHILSG
notes: myosin essential light chain Myl6, Uniprot-ID P60660 (a human entry); the vector was prepared as in Reindl et al., 2022; also called ELC; source: baculovirus/Sf9, co-produced with Myo5c–HMM, CaM and Myl12b
Turning to B1, the “stoichiometry N” value in experiment [8] was ~1 light chain:heavy chain.

B2: regulatory light chain Myl12b (natural protein, human (from the printed UniProt entry), UniProt O14950 1-172, looked up)
chain: MSSKKAKTKTTKKRPQRATSNVFAMFDQSQIQEFKEAFNMIDQNRDGFIDKEDLHDMLASLGKNPTDAYLDAMMNEAPGPINFTMFLTMFGEKLNGTDPEDVIRNAFACFDEEATGTIQEDYLRELLTTMGDRFTDEEVDELYREAPIDKKGNFNYIEFTRILKHGAKDKDD
notes: myosin regulatory light chain 12B (Myl12b), Uniprot-ID O14950 (a human entry); the vector was prepared as in Reindl et al., 2022; also called RLC; source: baculovirus/Sf9, co-produced with Myo5c–HMM, CaM and Myl6
In the case of B2, the “stoichiometry N” value in experiment [8] is ~3 light chain:heavy chain.

These data come from paper PMC11008601, “Motor properties of Myosin 5c are modulated by tropomyosin isoforms and inhibited by pentabromopseudilin” (Frontiers in Physiology, 2024).
